According to patent US4446316A, “Dextran derivative of fibrinolysin” (Vsesojuzny Kardiologichesky Nauchny Tsentr, priority 1980, dated 1984):
“Also recorded” adds a separate entry of the source.

Experiments:
Rabbits = assay: Toxicity upon intravenous injection in rabbits; assay type: in vivo; settings: i.v.
Excerpt: (§1) The toxicity of the fibrinolysin derivative according to the present invention was studied on white mice, rats, rabbits and dogs.
(§2) Toxicity of the fibrinolysin derivative of the invention
(§3) for animals of different species upon intravenous injection

Dogs = assay: Toxicity upon intravenous injection in dogs; assay type: in vivo; settings: i.v.
Excerpt: as §1, §2, §3

blood coagulation = assay: Blood coagulation and bleeding during therapy of experimental thrombosis; assay type: in vivo, rabbit; settings: for Bleeding / Changes in the third phase of blood coagulation: during treatment
Excerpt: (§4) The study of the specific (thrombolytic) effect of the polysaccharide fibrinolysin derivative according to the present invention has been studied on models of thromboses of a rabbit's jugular vein and a dog's femoral vein or artery. Thrombi of 1 to 2.5 cm size were formed in the above-mentioned animals which fully obliterated the cross-section of a blood vessel. The administration of the test preparation at the background of heparin was started one hour after the thrombus formation.
(§5) On the basis of an expected prolonged fibrinolytic effect of the preparation according to the present invention, a test dose of the preparation ranging from 400 to 4,000 units per kg of the bodyweight is dissolved in a physiological solution, 20-30 ml for rabbits and 50-100 ml for dogs, and injected by means of a syringe in a jet-like manner intravenously over 20 minutes, not following the instruction on the use of fibrinolysin (intravenously by the dropwise method at a rate of 10-12 drops per minute).
(§6) The dynamics of the thrombus formation and lysis was observed visually and by palpation during 6 hours of the experiment, after one, two and three days. The angiography and fluorometry were carried out prior to the beginning of the treatment and one day after the administration of the preparation.

[1] = tested on: euglobulin fraction of dog's plasma; assay: Lysis duration of the euglobulin fraction of dog's plasma with experimental thrombosis; assay type: in vivo; settings: for Lysis duration of the euglobulin fraction, initial parameter: before administration (baseline)
Excerpt: (§7) The prolonged effect of the fibrinolysin derivative according to the present invention has been studied in experiments on dogs in comparison with the effect of native fibrinolysin.
Variation of lysis duration (in minutes) of the euglobulin
fraction of dog's plasma with experimental thrombosis upon
administration of the fibrinolysin derivative according to
the present invention and native fibrinolysin

Mice = assay: Toxicity upon intravenous injection in mice; assay type: in vivo, white mice; settings: i.v.
Excerpt: as §1, §2, §3

Rats = assay: Toxicity upon intravenous injection in rats; assay type: in vivo; settings: i.v.
Excerpt: as §1, §2, §3

[2] = tested on: thromboses of a dog's femoral vein or artery; assay: Thrombolytic activity on model of thrombosis of dog's femoral vein (lysis of thrombus); assay type: in vivo; settings: dogs
Excerpt: as §4, §5, §6

[3] = tested on: thromboses of a rabbit's jugular vein; assay: Thrombolytic activity on model of thrombosis of rabbit's jugular vein (lysis of thrombus); assay type: in vivo
Excerpt: as §4, §5, §6

experimental thrombosis = assay: Duration of fibrinolytic effect and effective dose in experimental thrombosis; assay type: in vivo, rabbits, dogs; settings: for Minimal effective (therapeutical) dose: single intravenous jet-like infusion
Excerpt: as §4, §5, §6

[4] = Solubility and hygroscopicity of the preparation; assay type: physicochemical; settings: for Solubility in 0.9% isotonic solution of sodium chloride: 0.9% sodium chloride; for Hygroscopicity: lyophilized powder
thrombin time = assay: Thrombin time in dogs with experimental thrombosis; assay type: in vivo, dog; settings: for Thrombin time, initial parameter: before administration (baseline)
Excerpt: as §7
Variation of thrombin time (in seconds) in dogs with expe-
rimental thrombosis after administration of the fibrinolysin
derivative according to the present invention and native

[5] = tested on: white mice, rats, rabbits and dogs; assay: Toxicity, general findings in white mice, rats, rabbits and dogs; assay type: in vivo; settings: for Death of animals: single i.v. dose exceeding the therapeutic dose by 4-5 times
Excerpt: as §1

[6] = Fibrinolytic activity of the preparation; assay type: biochemical; settings: for Specific (fibrinolytic) activity: lyophilized preparation; for Total activity relative to the initial value: of the initial value

B1: Fibrinolysin derivative of the invention: fibrinolysin covalently bonded to dextran dialdehyde (molecular mass 20,000 to 110,000), reduced with sodium borohydride (conjugate, UniProt P00747 20-580; P00747 581-810, looked up)
Plasmin heavy chain A: EPLDDYVNTQGASLFSVTKKQLGAGSIEECAAKCEEDEEFTCRAFQYHSKEQQCVIMAENRKSSIIIRMRDVVLFEKKVYLSECKTGNGKNYRGTMSKTKNGITCQKWSSTSPHRPRFSPATHPSEGLEENYCRNPDNDPQGPWCYTTDPEKRYDYCDILECEEECMHCSGENYDGKISKTMSGLECQAWDSQSPHAHGYIPSKFPNKNLKKNYCRNPDRELRPWCFTTDPNKRWELCDIPRCTTPPPSSGPTYQCLKGTGENYRGNVAVTVSGHTCQHWSAQTPHTHNRTPENFPCKNLDENYCRNPDGKRAPWCHTTNSQVRWEYCKIPSCDSSPVSTEQLAPTAPPELTPVVQDCYHGDGQSYRGTSSTTTTGKKCQSWSSMTPHRHQKTPENYPNAGLTMNYCRNPDADKGPWCFTTDPSVRWEYCNLKKCSGTEASVVAPPPVVLLPDVETPSEEDCMFGNGKGYRGKRATTVTGTPCQDWAAQEPHRHSIFTPETNPRAGLEKNYCRNPDGDVGGPWCYTTNPRKLYDYCDVPQCAAPSFDCGKPQVEPKKCPGR
Plasmin light chain B: VVGGCVAHPHSWPWQVSLRTRFGMHFCGGTLISPEWVLTAAHCLEKSPRPSSYKVILGAHQEVNLEPHVQEIEVSRLFLEPTRKDIALLKLSSPAVITDKVIPACLPSPNYVVADRTECFITGWGETQGTFGAGLLKEAQLPVIENKVCNRYEFLNGRVQSTELCAGHLAGGTDSCQGDSGGPLVCFEKDKYILQGVTSWGLGCARPNKPGVYVRVSRFVTWIEGVMRNN
modifications: Plasmin dextran dialdehyde conjugate, borohydride reduced
notes: fibrinolysin covalently bonded to dextran dialdehyde (molecular mass 20,000 to 110,000), reduced with sodium borohydride
LD50 (Rabbits): 1834 un./kg | Toxicity test result (dead/survived, not defined) (Rabbits; 500 un/kg): 0/6 | Toxicity test result (dead/survived, not defined) (Rabbits; 1500 un/kg): 2/4 | Toxicity test result (dead/survived, not defined) (Rabbits; 2000 un/kg): 2/4 | Toxicity test result (dead/survived, not defined) (Rabbits; 2500 un/kg): 6/0 | Toxicity test result (dead/survived, not defined) (Dogs; 500 un/kg): 0/3 | Toxicity test result (dead/survived, not defined) (Dogs; 1000 un/kg): 0/3 | Toxicity test result (dead/survived, not defined) (Dogs; 1500 un/kg): 0/1 | Bleeding (blood coagulation): not accompanied by bleeding | Changes in the third phase of blood coagulation (blood coagulation): no sharp changes in the third phase of blood coagulation | Lysis duration of the euglobulin fraction ([1]; after 2 hours): 90 min | Lysis duration of the euglobulin fraction ([1]; after 1 day): 1 min | Lysis duration of the euglobulin fraction ([1]; after 2 days): 10 min | Lysis duration of the euglobulin fraction, initial parameter [1]: 70 min | LD50 (Mice): 5000 un./kg | Toxicity test result (dead/survived, not defined) (Mice; 2000 un/kg): 0/6 | Toxicity test result (dead/survived, not defined) (Mice; 2500 un/kg): 0/6 | Toxicity test result (dead/survived, not defined) (Mice; 5000 un/kg): 2/4 | Toxicity test result (dead/survived, not defined) (Mice; 6250 un/kg): 6/0 | LD50 (Rats): 4586 un./kg | Toxicity test result (dead/survived, not defined) (Rats; 2000 un/kg): 0/6 | Toxicity test result (dead/survived, not defined) (Rats; 2500 un/kg): 0/6 | Toxicity test result (dead/survived, not defined) (Rats; 3750 un/kg): 2/4 | Toxicity test result (dead/survived, not defined) (Rats; 5000 un/kg): 3/3 | Toxicity test result (dead/survived, not defined) (Rats; 6250 un/kg): 6/0 | Efficiency of the therapy (lysis of thrombus) ([2]; femoral vein, 600 units/kg i.v., n=3): full lysis | Efficiency of the therapy (lysis of thrombus) ([3]; rabbits, 400 units/kg i.v., n=7): full lysis | Efficiency of the therapy (lysis of thrombus) ([3]; rabbits, 600 units/kg i.v.): full lysis | Normalization of changes in the blood clotting system (experimental thrombosis; after administration): on the second day | Duration of the fibrinolytic effect (experimental thrombosis; after administration, listed as fibrinolysin derivative according to the present invention): up to two days after administration; also recorded: observed also on the second day | Minimal effective (therapeutical) dose (experimental thrombosis): 400 units/kg | Prolongation of the effect as compared to native fibrinolysin (experimental thrombosis; vs native fibrinolysin): 2-3 times | Solubility in 0.9% isotonic solution of sodium chloride [4]: readily soluble | Solubility in 95% ethanol [4]: substantially insoluble | Solubility in chloroform [4]: substantially insoluble | Solubility in ether [4]: substantially insoluble | Hygroscopicity [4]: hygroscopic | Solubility in water [4]: readily soluble | Thrombin time (thrombin time; after 2 hours): 90 s | Thrombin time (thrombin time; after 1 day): 92 s | Thrombin time (thrombin time; after 2 days): 210 s | Thrombin time, initial parameter (thrombin time): 35 s | Toxicity ([5]; compared with native fibrinolysin / overall statement, listed as fibrinolysin derivative according to the present invention): low toxicity | Effect on the vessels ([5]; in the test doses): no injuring effect on the vessels | Macro- and microscopic changes in the inner organs ([5]; in the test doses): no macro- and microscopic changes in the inner organs | Effect on the central nervous system and blood pressure ([5]; in therapeutical doses): no effect on the central nervous system and blood pressure | Death of animals ([5]; listed as fibrinolysin derivative according to the present invention): does not result in death of animals | Death of animals ([5]; listed as fibrinolysin derivative of the present invention): does not result in their death

B2: 1: polysaccharide derivative of fibrinolysin from oxidized polyglucin with the molecular mass of 20,000, reduced with sodium borohydride (conjugate, UniProt P00747 20-580; P00747 581-810, looked up)
Plasmin heavy chain A: B1 Plasmin heavy chain A
Plasmin light chain B: B1 Plasmin light chain B
modifications: plasmin conjugated to oxidized polyglucin, borohydride-reduced
notes: polysaccharide derivative of fibrinolysin from oxidized polyglucin with the molecular mass of 20,000, reduced with sodium borohydride
Specific (fibrinolytic) activity [6]: 21.2 units/mg | Total activity relative to the initial value [6]: 31.0% | Total activity ([6]; whole batch): 48200 units | Solubility in 0.9% isotonic solution of sodium chloride [4]: soluble | Solubility in 95% ethanol [4]: substantially insoluble | Solubility in chloroform [4]: substantially insoluble | Solubility in ether [4]: substantially insoluble | Hygroscopicity [4]: hygroscopic | Solubility in water [4]: soluble

B3: Fibrinolysin: native enzyme; thrombolytic preparation administered intravenously (protein, UniProt P00747 20-580; P00747 581-810, looked up)
Plasmin heavy chain A: B1 Plasmin heavy chain A
Plasmin light chain B: B1 Plasmin light chain B
modifications: Plasmin
notes: native enzyme; thrombolytic preparation administered intravenously
Bleeding (blood coagulation): bleeding | Changes in the third phase of blood coagulation (blood coagulation): pathological changes in the third phase of blood coagulation | Content of fibrinogen (blood coagulation; first hours after administration): down to zero | Lysis duration of the euglobulin fraction ([1]; after 2 hours): 3 min | Lysis duration of the euglobulin fraction ([1]; after 1 day): 105 min | Lysis duration of the euglobulin fraction ([1]; after 2 days): 90 min | Lysis duration of the euglobulin fraction, initial parameter [1]: 38 min | Efficiency of the therapy (lysis of thrombus) ([2]; femoral vein, 800 units/kg i.v., n=1): no lysis | Efficiency of the therapy (lysis of thrombus) ([2]; femoral vein, 1,600 units/kg i.v., n=1): full lysis | Efficiency of the therapy (lysis of thrombus) ([3]; rabbits, 600 units/kg i.v.): no lysis | Efficiency of the therapy (lysis of thrombus) ([3]; rabbits, 800 units/kg i.v. (Table 1: 2 animals full lysis, 1 animal no lysis)): full lysis; also recorded: no lysis | Efficiency of the therapy (lysis of thrombus) ([3]; rabbits, 800 units/kg i.v. (Table 1: 2 animals full lysis, 1 animal no lysis), listed as fibrinolysin): no thrombolytic effect in all cases | Efficiency of the therapy (lysis of thrombus) ([3]; rabbits, 1,200 units/kg i.v.): full lysis | Efficiency of the therapy (lysis of thrombus) ([3]; rabbits, 2,000 units/kg i.v.): full lysis | Death of animals ([3]; rabbits, 4,000 units/kg i.v.): death of animals | Efficiency of the therapy (lysis of thrombus) ([3]; rabbits, 4,000 units/kg i.v.): full lysis | Lysis of a thrombus at the minimal therapeutic dose (experimental thrombosis; 800 units/kg of the bodyweight): does not always cause the lysis of a thrombus | Duration of the fibrinolytic effect (experimental thrombosis; after administration): limited to one day | Minimal effective (therapeutical) dose (experimental thrombosis): 800 units/kg | Thrombin time (thrombin time; after 2 hours): 195 s | Thrombin time (thrombin time; after 1 day): 95 s | Thrombin time (thrombin time; after 2 days): 97 s | Thrombin time, initial parameter (thrombin time): 22 s

B4: 2: polysaccharide derivative of fibrinolysin from oxidized polyglucin with the molecular mass of 110,000 and the oxidation degree of 20±2% (conjugate, UniProt P00747 20-580; P00747 581-810, looked up)
Plasmin heavy chain A: B1 Plasmin heavy chain A
Plasmin light chain B: B1 Plasmin light chain B
modifications: plasmin conjugated to oxidized polyglucin
Specific (fibrinolytic) activity [6]: 24 units/mg | Total activity relative to the initial value [6]: 30% | Solubility in 0.9% isotonic solution of sodium chloride [4]: readily soluble | Solubility in 95% ethanol [4]: substantially insoluble | Solubility in chloroform [4]: substantially insoluble | Solubility in ether [4]: substantially insoluble | Hygroscopicity [4]: hygroscopic | Solubility in water [4]: readily soluble
